{
  "source": "patent US10485196",
  "about": "“Rice plants with altered seed phenotype and quality” (THE INSTITUTE OF GENETICS AND DEVELOPMENTAL BIOLOGY CHINESE …)",
  "settings_in_all_cases": "label: biotin 3'",
  "key": {"OsSPL16 (GW8) [1]": {"biological_target": "T1, OsSPL16 (GW8) (Oryza sativa, UniProt Q6YZE8 Q6YZE8:1-455)", "T1 sequence": "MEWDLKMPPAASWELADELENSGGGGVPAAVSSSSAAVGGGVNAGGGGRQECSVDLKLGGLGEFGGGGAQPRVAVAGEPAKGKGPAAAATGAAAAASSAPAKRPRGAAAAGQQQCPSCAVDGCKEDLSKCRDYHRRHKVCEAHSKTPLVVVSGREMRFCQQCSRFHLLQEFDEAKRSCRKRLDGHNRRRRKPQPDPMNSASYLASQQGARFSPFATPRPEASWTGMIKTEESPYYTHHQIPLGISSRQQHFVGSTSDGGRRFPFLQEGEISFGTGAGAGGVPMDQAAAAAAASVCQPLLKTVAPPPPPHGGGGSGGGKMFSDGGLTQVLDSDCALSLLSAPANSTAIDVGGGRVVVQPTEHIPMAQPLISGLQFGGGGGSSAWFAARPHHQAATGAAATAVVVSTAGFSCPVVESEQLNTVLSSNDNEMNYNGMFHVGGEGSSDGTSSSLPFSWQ", "experiment": "EMSA; competed by 10-50x cold GTAC probe; probe assignment from Table 9", "source_text": "FIG. 4. OsSPL16 negatively regulates GW7 expression. (a) Effect of OsSPL16/GW8 on transcript abundance of GW7 in young panicles. Transcription relative to the level of NIL-GW8^HJX74 plants set to be one. Data shown as mean±s.e.m (n=3). (b) Grain size and shape formed by transgenic NIL-gw8 Basmati plants. Scale bar: 2 mm. (c) ChIP assays. The diagram depicts the putative GW7 promoter and regions of it used for ChIP-PCR analysis of extracts from young panicle of transgenic NIL-gw8 Basmati plants carrying pActin::myc-OsSPL16 construct. Data shown as mean±s.e.m (n=3). (d) EMSA assays. The GTAC motifs-containing DNA fragment (F8 shown in c) of the GW7 promoter was incubated with GST-OsSPL16 as indicated. Competition for OsSPL16 binding was performed with 10×, 20×, 30× and 50× cold probes containing the GTAC motifs, respectively. (e) OsSPL16 represses transcription of the GW7 gene promoter. Relative luciferase activity was monitored in rice protoplasts co-transfected with the different effector and reporter constructs. Mock: co-transfected with reporter constructs and an empty effector construct; negative control: co-transfected with effector construct and an empty reporter construct set to be one. Data shown as mean±s.e.m (n=3). A Student's t-test was used to generate the P values. (f) An 11 bp deletion and 18 bp insertion found in close proximity to the GTAC motifs in the GW7TFA allele. […]"}, "OsSPL16 (GW8) [2]": {"biological_target": "T1, OsSPL16 (GW8)", "experiment": "EMSA; competed by 10-50x cold GTAC probe; probe assignment from Table 9", "remark": "listed apart in the source"}, "OsSPL16 (GW8) [3]": {"biological_target": "T1, OsSPL16 (GW8)", "experiment": "EMSA; mutation of GTAC abolished affinity; probe assignment from Table 9", "protocol": "FIG. 10 The DNA fragment (F8) containing two […] motifs (a) or two mutated ATAC motifs (b) was incubated with GST-OsSPL16 as indicated. Competition for OsSPL16 binding was performed with 10×, 20×, 30× and 50× cold probes containing the GTAC motif, respectively."}},
  "data": [
    {"binder": "GW7 promoter F8 fragment probe (HJX1) (dsDNA) DNA 1: CCATTGACACACCATACCACATCTCATCTCACGCGTCCCAAAGAAAGTGATAGTGTACGTACC DNA 2: GGTACGTACACTATCACTTTCTTTGGGACGCGTGAGATGAGATGTGGTATGGTGTGTCAATGG", "values": [
      {"measurement": "binding result", "setting": "OsSPL16 (GW8) [1]", "result": "binds"}
    ]},
    {"binder": "GTAC motif probe (T) (dsDNA) DNA 1: TAGTGTACGTACCTCTTAGTGTACGTACCTCTTAGTGTACGTACCTCT DNA 2: AGAGGTACGTACACTAAGAGGTACGTACACTAAGAGGTACGTACACTA", "values": [
      {"measurement": "binding result", "setting": "OsSPL16 (GW8) [2]", "result": "binds"}
    ]},
    {"binder": "mutated GTAC motif probe (Z) (dsDNA) DNA 1: TAGTGTGCGTGCCTCTTAGTGTGCGTGCCTCTTAGTGTGCGTGCCTCT DNA 2: AGAGGCACGCACACTAAGAGGCACGCACACTAAGAGGCACGCACACTA", "values": [
      {"measurement": "binding result", "setting": "OsSPL16 (GW8) [3]", "result": "no binding"}
    ]}
  ]
}
